Data from patent US20210122826A1 (MIT, published 2021).

Biological target: T1, human CD161 (human, UniProt Q12918 1-225)
T1 construct: UniProt Q12918; also called hCD161; KLRB1
Assay: blocking assay by flow cytometry: 500 nM biCLEC2D on Jurkat hCD161+ cells with 1, 10 or 100 nM antibody, SA-AF647; blocked ligand biCLEC2D; control 500 nM biCLEC2D on Jurkat WT

B1: KM12.3.2 (antibody, V domains shown)
VH: EVQLVESGGGLVQPGGSLRLSCAASGFTFSSYAMSWIRQAPGKGLEWVSAISGSGGSIYYADSVKGRFTISRDNSKNTLYLQMDSLRAEDTAVYYCARGYSDSYFYGPYYTFDYWGQGTLVTVSS
VL: not shown
Question: Does B1 bind?
Answer: Result: binds
